Experimental data from US20140322269A1.

How the values were obtained:
[1] = target: c1d1_v2 displayed on yeast (Saccharomyces cerevisiae); experiment: yeast surface display; Fab titration, flow cytometry
[2] = target: c1d1_b10disulf displayed on yeast (Saccharomyces cerevisiae); experiment: as above
[3] = target: c1d1_N386D displayed on yeast (Saccharomyces cerevisiae); experiment: as above
[4] = target: c1d1_N386D; experiment: SPR, kinetics fitting
[5] = target: ODml(N386) (Human immunodeficiency virus type 1 group M subtype B (isolate HXB2) (HIV-1)) (UniProt P04578); experiment: SPR; IgG captured, OD variant as analyte
[6] = target: c2d1_b10disulf; experiment: SPR; IgG captured, OD variant as analyte
[7] = target: wild-type core GP120 (soluble, mammalian-expressed) (HIV, HxB2 strain) (UniProt P04578); experiment: method not restated; rounded form of 3.9 nM of Table 1
[8] = target: c1d1_N386D; experiment: method not restated
[9] = target: c1d1_N386D; experiment: ITC
[10] = target: c1d1_b10disulf; experiment: ITC
[11] = target: eOD_N276D_N463D; experiment: method not given; protein from 293 cells
[12] = target: eOD_T257S_L260F_S375W; experiment: method not given
[13] = target: eOD_N276D; experiment: method not given
[14] = target: eOD_T257S_S375W; experiment: method not given
[15] = target: eOD_L260F_N276D; experiment: method not given
[16] = target: eOD_L260F; experiment: method not given
[17] = target: c1d1_N386D; experiment: SPR and ITC
[18] = target: wild-type core GP120 (soluble, mammalian-expressed) (HIV, HxB2 strain) (UniProt P04578); experiment: SPR; IgG captured by anti-human IgG, gp120 as analyte
[19] = target: c1d1_N386D; experiment: SPR
[20] = target: eOD_N276D_N463D; experiment: method not given

VRC01 Fab
Kd [1]: > 50 nM | Kd [2]: > 50 nM | Kd [3]: > 50 nM

VRC01 IgG (mature VRC01) (antibody)
Kd [4]: 139 nM | Kd [5]: 298 nM | Kd [6]: 289 nM | Kd [7]: 4 nM | Kd [8]: 80 nM | fold weaker affinity than core gp120 [8]: > 10 fold | Kd [9]: 200 nM | Kd [10]: 100 nM | fold improvement of KD over c1d1 N386D [10]: 2 fold | Kd [11]: 4 nM | Kd [12]: 8.6 nM | Kd [13]: 27.8 nM | Kd [14]: 90 nM | Kd [15]: 11.9 nM | Kd [16]: 14.3 nM | fold worse KD than core gp120 [17]: 35 to 50 fold | Kd [18]: 3.9 nM

b12 Fab
Kd [1]: 11 nM | Kd [3]: 21 nM

b12 IgG (antibody)
fold improvement of KD over OD (386) [19]: 28 fold

germline VRC01 IgG (antibody)
Kd [20]: 380000 nM | Kd [13]: 640000 nM | Kd [15]: 149000 nM | Kd [16]: > 500000 nM
